Assay: yeast display, Sf9 membrane polyspecificity reagent, FACS + sequencing; frameworks hold sequencing errors
Procedure, shortened: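 Nanobodies came from a synthetic yeast display library in Saccharomyces cerevisiae BJ5465, induced with galactose for 36–48 hours and stained for 1 hour at 4 °C with 10% biotinylated, detergent-solubilized Sf9 membrane reagent. Cells were enriched on streptavidin microbeads and then FACS-sorted, with low and high (top ~1%) gates set on anti-HA fluorescence for expression and streptavidin fluorescence for reagent binding. Each polyreactivity label reflects the gate a clone came from. Genes were amplified by colony PCR, sequenced by MiSeq 2 × 250 and filtered by CDR length.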

Sequence | polyreactivity (PSR sort gate)
QVQLVESGGGLVQAGGSLRLSCAASGGTFLNYAMGWYRQAPGKERELVAVITNGDSTYYADSVKGRFTISRDNAKNSVYLQMNSLKPEDTAVYYCNADDWGQYNIWYDYWGQGTQVTVSS | low polyreactivity
QVQLVESGVGLVQAGGSLRLSCAASGSTFLTNAMGWNRQAPGKERELVAAINWRGDSTYYADSVKGRFTISRDNAKNTVYLQMNSLKPEDTAVYYCAAKYNHVTDEYDYWGQGTQVTVSS | high polyreactivity
QVQLVESGGGLGQSGGSLRLSCAATGSTYKYNAMGWNRTAPGKERELVPAISRGGRTNYADSVKGRFTISRDNAKNTVYFQMNILKPEDTAVYYCAKDVAGLFHVGSLYYYWGQGTQVNVSS | low polyreactivity
QFQLEESGGGLVQAGGSLRLSCAASGSTFWYNAMGWYRQAPGKERELVAAISRSGATTYYADSVKGRFTISRDNAKNTVYLQMNSLKPEDTAVYYCNAVISPSSYVRNSDYWGQGTQVTVSS | low polyreactivity
QVQLVESGGGLVQAGGSLRLSCAASGFTFGRYAMGWYRQAPGKERELVASISRSGGSTNYADSVKGRFTISRDNAKNTVYLQMNSLKPEDTAVYYCAAVKGRRYDYWGQGTQVTVSS | high polyreactivity
QVQLVESGGGLVQAGGSLRLSCAAAGSTFSSYAMVWYRQAPGKERELVAAISTSGGRTYYADSVKGRFTISRDNAKNAVFLQMNSLKPEDTAVYYCAKKGICYVRYYYWGQGTLVTVSS | high polyreactivity
QVHLEESGGGLVQAGGSLRLRSAATGRIFKRYAMGWYIQAPGKERDLVAAINWSTGGTYYADSVKGRFTISRDNAKNSVYLHMNSLKPVDTAVYSCAADGDAWFEYLDVEYYYWGQGTQVTVSS | low polyreactivity
QVQLVESGGGLVQAGGSLSLSCAASGRIFYVNAMGWYRQAPGKERELVAAISRSGSSTYYADSVKGRFTISRDNAKNTVYLQMNSLKPEDTAVYYCAARYYGRSQHHFDYWGQGTQVTVSS | high polyreactivity
QVQLVESGGGLVQAGGSLRLSCAASGFTFHSYAMGWYRQAPGKDRELVAAISRGGGNTYYADSVKGRFTISRDNAKNTVYLQMNSLKPEDTAVYYCAADAIYNFEMDYWGQGTQVTVSS | high polyreactivity
QVQLVESGGGLVQAGGSLRLSCAASGFNFSDYDMGWYRQAPGKERELVAAITYSGCSTYYADSVKGRFTISRDNAKKTVYLQMNSLKPEDTAVYYCAAVKSRYAEAVDYYYWGQGTQVTVSS | low polyreactivity
QVQHVESGGGLVQAGGSLRLSCAASGYTFRYYAMGWYRQAPGKERELVARINRSGGSTYYADSVKGRFTISRDYAKYTVYLQMNSLKPEDTAVYYCNRDYGWHYSYDYWGQGTQVTVSS | high polyreactivity
QVQLVESGGGLVQAGGSLRLSCAASGSIFGLYAMGWYRQAPGKERELVATITSGTNTYYADSVKGRFTISRDNAKNTVYLQMNSLKAEDTAVYYCAKSYIAWDGRTFEEMNYWGQGTLVTVSS | low polyreactivity
QVQLVESGVGLVQAGGSLRLSCAASGFTFARYAMGRYRQAPGKEREFVAAISLSTTSTYYADSVKGRFTISRDYANNNVFLQMNSLKPEDTAVYYCATDIVGPHFDYWGQGTQVSVSS | low polyreactivity
QVQLVESGGGLVQAGGSLRLRCAASGSTFQTYAMGWYRQAPGKERELVAAITSGGATNYADSVKGRFTISRDNAKNTVFLQMNFLTPEVTAVYYCAVRLIDQTSDHRLQYDYWGQGTQVTVSS | low polyreactivity
QVQLVESGGGLVQAGGSLRLSCAASGSIFGIYAMGWYRQAPGKERELVAAISKSGGGTYYADSVKGRFTISRDNAKNTVYLQMNSLKPEDTAVYYCNADYWQWYSYWYDYWGQGTQVTVSS | high polyreactivity
QVQLVESGGGLVQAGGSLRLSCAASGRIFSAYAMGWYRPAPGKERELVAAISKRGGRTYYADSVKGRFTISRDNAKNTVYLQMNSLKPEDTAVYYCNKRYHDGHELDYWGQGTQVTVSS | high polyreactivity

Sequence | polyreactivity (PSR sort gate)
QVQLVESGGGLVQAGGSLRLSCAASGSNFWRNVMGWYRQAPGKERELVAAISSGGSTYYADSVKGRFTISRDNAKNTVYLQMNSLKPEDTEVYYCAAPRYDYWGQGTQVTVSS | high polyreactivity
QVQLVESGGGLVQAGGSLRLSCAASGITVYLYAMGWYRQAPGKERELVAAISSSGGSTYYADSVKGRFTISRDNAKNTVYLQMNSLKPEDTAVYYCAAVYYTSVTIYDYWGQGTQVTVSS | high polyreactivity
QVQLAESGGGLVQAGGSLRLSCAASGIIFYFYAMGWYRQAPGKERELVAAINSSSGRTYYADSVKGRFTISRDNAKNSVYLQMNSLKPEDTAVYYCAAYYYGSYDGTPYDYWGQGTQVTVSS | low polyreactivity
QVQHVASGGGLVQAGGSLRLSCAASGNIFRYYTMGWYRQAPGKERELVATISYADSVKGRFTISRDNAKNTVYLQMNSLKPEDTAVYYWNAVFAPWDKQDYPYDYDYWGQGTQVTVSS | low polyreactivity
QVQLVESGGGLVQAGGSLRLSCAASGLTFGVNAMGWYRQAPGKERELVAVITSGGNTYYADSVKGRFTISRDNAKNTVYLQMNSLKPEDTAVYYCAAYGRASWERDYWGQGTQVTVSS | low polyreactivity
QVQLVESGGGLFQAGGSLRLSCAASGSTLAGYTMGWYRQAPGKERELVASISFTGGSTYYADSVKGRFTISRDNAKNTVYLQMNSLKPEDTAVYYCAAGTWQYYFLYDTYRRYYYWGQGTQVTGSS | high polyreactivity
QVQLVESGGGLLQAGGSLRLSCAASGITFVKYTMGWYRQAPGKERELVAAISRSDGRTYYADSVKGRFTISRDNAKNTVYLQMNSLQPEDTEVYYCNAVYGVIGKGYNYWGQGTQVTVSS | high polyreactivity
QVQLEESGGGLVQAGGSLRLSCAASGSIFGFYMGWDRQAPRKEREMVAAISGSGGNTYYADSVKGRFTISRDNAKNTVYLQMNSQKPEDNAVYYCAARGYVWNIGRYYWGQGTQVTVSW | high polyreactivity
QVQLVESGGGLVQAGGSLRLSCAASGSIFDNAMGWYRQAPGKERELVADITNNGGSTYYADSVKGRFTISRDNAKNTVYLQMNSLKPEDTAVYYCAKRRNYWFSFDYWGQGTQVTVSS | low polyreactivity
QVQLVESGGGLVQAGGSLRLSCAASGSTYYYAMGWYIQEPGKEREFVAAISASGGSTYYADSVKGRFTISRDNAKNTVYLQMNSLKPDDTAGYYCTPLGYGYWGQGTQVTVSS | high polyreactivity
QVQLVESGGGLVQAGGSLRLSCAASGRIFITYAMGWYRPAPGTERELVAAIDSRGGSTYYADSVKGRFTISRDNAKNTDYLQMNSLKPEDTSVNYCAAEFYYIWLYEYWGQGTQVTVSS | high polyreactivity
QVQLVESGGGLVQAGGSLRLSCAASGSTFPSNAMGWYRQAPGKERELVAAISRSGGSTYYADSVKGRFTISRDNAKNTVYLQMNSLKPEDTAVYFCAVQVRPNSGGTRIHRGGYDYWGQGTQVTVSS | low polyreactivity
QVQLEESGGGLVQAGGRLRLSCAASGSNTRTYAMGWYRQAHGKERELVAAISSSVCRTYYADSVKGRFTISRDNEKNTVYLQMNSLKPEDTAVYYCNSRTYSYRGYNYWGQGTQVTVSS | high polyreactivity
QVQLVESGGGLVQAGGSLRLSCAASGSTFAYYAMGWYRKAPGKERELVAAISSGGSTYYADSVKGRFTISRDNAKNTVYLQMNSLKPEDTAVYYCNKLWVGKFKRYEFGYWGQGTQVTVSS | low polyreactivity
QVQLVESGGGLVQAGGSLRLSCAASGSNFYPYTMGWYRQAPGKERELVAAISGGGRTYYADSVKGRFTISRDNAKNTVFLQMNSLNPEDTAVYYCAARYVYRWLVGKYEYWGQGTQVTLSS | high polyreactivity
QVQLVETGGGLVQAAGSLRLSTAASGSTYWCNTMGWYRQAPGKERELVADIRTSGGGTYYADSVKGRFTISRDNAKNTVYLQMNRLKPEDTAVYYCNAVPNWEMGSWGLGTQVTVSS | low polyreactivity

— the nanobody polyreactivity screen of Harvey et al. (2022)
